# In patent US20160002357A1 (Pfizer, published 2016):
# Target: T1, P-cadherin-ECD1-3-Fc protein (human P-cadherin-Fc) (human, UniProt P22223 108-440)
# T1 construct: Construct was expressed with signal peptide and pro-peptide (PACE co-transfected to process the propeptide); not shown: hinge and CH2 and CH3 domains of human IgG1
# Test: phage scFv ELISA, coated P-cadherin-ECD1-3-Fc
# Description: ScFvs may be expressed on the surface of a phage particle. To prepare phage expressing scFv on their surface, 96-deep well plates containing 1 mL 2× TY media with 2% glucose/100 μg/mL ampicillin were inoculated with 0.5-1 μL from thawed glycerol stocks (one clone per well) using the QPix™2 Colony picker (Molecular Devices, Sunnyvale Calif.) and grown at 37° C. (900 rpm) for ˜4 hours. Next, 5 μL of a 1:29 dilution of helper phage (8.3×10¹³ pfu) was added and the plates and incubated for a further 30 minutes at 37° C. with no shaking then 1 hour at 300 rpm. Plates were centrifuged and the media was replaced with a kanamycin/non-glucose containing media (2× TY with 50 μg/mL kanamycin and 100 μg/mL ampicillin). Plates were grown overnight at 25° C. (900 rpm), and phage were harvested in the supernatant following centrifugation.
# P-cadherin-ECD1-3-Fc protein or negative control protein was coated overnight at 4° C. on 96-well Nunc Maxisorp® plates (Thermo Fisher Scientific, Madison, Conn.) at a concentration of 2 μg/mL in PBS+Ca²⁺ and Mg²⁺. Plates were washed three times using PBS+Ca²⁺ and Mg²⁺ and blocked for 1 hour at room temperature in 3% milk/PBS+Ca²⁺ and Mg²⁺. Phage samples prepared as described above were added to the blocked plates for 1 hour at room temperature. Plates were washed three times with PBS+Ca²⁺ and Mg²⁺ prior to the addition of secondary antibody (anti M13-HRP 1:2000, GE Healthcare, Piscataway, N.J.). Plates were incubated for a further 1 hour at room temperature and washed six times with PBS+Ca²⁺ and Mg²⁺. Signal was developed using TMB (SurModics, Eden Prairie, Minn.), the reaction stopped with H₂SO₄ and the absorbance read at 450 nm on an EnVision® plate reader (Perkin Elmer, Waltham, Mass.).
# T1 sequence (P22223 108-440): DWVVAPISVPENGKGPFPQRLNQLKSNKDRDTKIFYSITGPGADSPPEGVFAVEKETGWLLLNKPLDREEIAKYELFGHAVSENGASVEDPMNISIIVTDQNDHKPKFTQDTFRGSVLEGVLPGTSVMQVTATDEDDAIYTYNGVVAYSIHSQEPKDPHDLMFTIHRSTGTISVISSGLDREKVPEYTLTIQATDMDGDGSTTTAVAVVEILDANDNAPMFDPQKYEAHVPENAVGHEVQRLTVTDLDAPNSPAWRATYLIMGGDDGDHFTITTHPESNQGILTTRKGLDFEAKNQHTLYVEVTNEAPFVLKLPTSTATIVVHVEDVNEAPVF
Binder,% of binding of Clone #153 to human P-cadherin-Fc [%],Human P-cadherin-Fc binding (OD450),Z Score
"anti-P-cadherin scFv 153 alanine-mutant L1.11-Ala (scFv, V domains shown, scFv on phage) VH: EVQLVQSGAEVKKPGASVKVSCKASGYTFTSYGISWVRQAPGQGLEWMGWISAYNGNTNYAQKLQGRVTMTTDTSTSTAYMELRSLRSDDTAVYYCATIDTANAFGIWGQGTMVTVSS VL: QSVLTQPPSVSAAPGQKVTISCSGSSSNIGNNAVSWYQQLPGTAPKLLIYDNNKRPSGIPDRFSGSKSGTSATLGITGLQTGDEADYYCGTWDSSLSGVVFGGGTKLTVL",139,1.84,0.8
"anti-P-cadherin scFv 153 alanine-mutant L2.5-Ala (scFv, V domains shown, scFv on phage) VH: EVQLVQSGAEVKKPGASVKVSCKASGYTFTSYGISWVRQAPGQGLEWMGWISAYNGNTNYAQKLQGRVTMTTDTSTSTAYMELRSLRSDDTAVYYCATIDTANAFGIWGQGTMVTVSS VL: QSVLTQPPSVSAAPGQKVTISCSGSSSNIGNNYVSWYQQLPGTAPKLLIYDNNKAPSGIPDRFSGSKSGTSATLGITGLQTGDEADYYCGTWDSSLSGVVFGGGTKLTVL",170,2.25,1.5
"anti-P-cadherin scFv 153 alanine-mutant L3.2-Ala (scFv, V domains shown, scFv on phage) VH: EVQLVQSGAEVKKPGASVKVSCKASGYTFTSYGISWVRQAPGQGLEWMGWISAYNGNTNYAQKLQGRVTMTTDTSTSTAYMELRSLRSDDTAVYYCATIDTANAFGIWGQGTMVTVSS VL: QSVLTQPPSVSAAPGQKVTISCSGSSSNIGNNYVSWYQQLPGTAPKLLIYDNNKRPSGIPDRFSGSKSGTSATLGITGLQTGDEADYYCGAWDSSLSGVVFGGGTKLTVL",61,0.81,-0.8
"anti-P-cadherin scFv 153 alanine-mutant L3.4-Ala (scFv, V domains shown, scFv on phage) VH: EVQLVQSGAEVKKPGASVKVSCKASGYTFTSYGISWVRQAPGQGLEWMGWISAYNGNTNYAQKLQGRVTMTTDTSTSTAYMELRSLRSDDTAVYYCATIDTANAFGIWGQGTMVTVSS VL: QSVLTQPPSVSAAPGQKVTISCSGSSSNIGNNYVSWYQQLPGTAPKLLIYDNNKRPSGIPDRFSGSKSGTSATLGITGLQTGDEADYYCGTWASSLSGVVFGGGTKLTVL",70,0.92,-0.6
"anti-P-cadherin scFv 153 alanine-mutant L1.13-Ala (scFv, V domains shown, scFv on phage) VH: EVQLVQSGAEVKKPGASVKVSCKASGYTFTSYGISWVRQAPGQGLEWMGWISAYNGNTNYAQKLQGRVTMTTDTSTSTAYMELRSLRSDDTAVYYCATIDTANAFGIWGQGTMVTVSS VL: QSVLTQPPSVSAAPGQKVTISCSGSSSNIGNNYVAWYQQLPGTAPKLLIYDNNKRPSGIPDRFSGSKSGTSATLGITGLQTGDEADYYCGTWDSSLSGVVFGGGTKLTVL",171,2.26,1.5
"anti-P-cadherin scFv 153 alanine-mutant L2.1-Ala (scFv, V domains shown, scFv on phage) VH: EVQLVQSGAEVKKPGASVKVSCKASGYTFTSYGISWVRQAPGQGLEWMGWISAYNGNTNYAQKLQGRVTMTTDTSTSTAYMELRSLRSDDTAVYYCATIDTANAFGIWGQGTMVTVSS VL: QSVLTQPPSVSAAPGQKVTISCSGSSSNIGNNYVSWYQQLPGTAPKLLIYANNKRPSGIPDRFSGSKSGTSATLGITGLQTGDEADYYCGTWDSSLSGVVFGGGTKLTVL",110,1.45,0.2
"anti-P-cadherin scFv 153 alanine-mutant L2.7-Ala (scFv, V domains shown, scFv on phage) VH: EVQLVQSGAEVKKPGASVKVSCKASGYTFTSYGISWVRQAPGQGLEWMGWISAYNGNTNYAQKLQGRVTMTTDTSTSTAYMELRSLRSDDTAVYYCATIDTANAFGIWGQGTMVTVSS VL: QSVLTQPPSVSAAPGQKVTISCSGSSSNIGNNYVSWYQQLPGTAPKLLIYDNNKRPAGIPDRFSGSKSGTSATLGITGLQTGDEADYYCGTWDSSLSGVVFGGGTKLTVL",163,2.16,1.3
"anti-P-cadherin scFv 153 alanine-mutant L2.6-Ala (scFv, V domains shown, scFv on phage) VH: EVQLVQSGAEVKKPGASVKVSCKASGYTFTSYGISWVRQAPGQGLEWMGWISAYNGNTNYAQKLQGRVTMTTDTSTSTAYMELRSLRSDDTAVYYCATIDTANAFGIWGQGTMVTVSS VL: QSVLTQPPSVSAAPGQKVTISCSGSSSNIGNNYVSWYQQLPGTAPKLLIYDNNKRASGIPDRFSGSKSGTSATLGITGLQTGDEADYYCGTWDSSLSGVVFGGGTKLTVL",172,2.28,1.5
"anti-P-cadherin scFv 153 alanine-mutant L3.3-Ala (scFv, V domains shown, scFv on phage) VH: EVQLVQSGAEVKKPGASVKVSCKASGYTFTSYGISWVRQAPGQGLEWMGWISAYNGNTNYAQKLQGRVTMTTDTSTSTAYMELRSLRSDDTAVYYCATIDTANAFGIWGQGTMVTVSS VL: QSVLTQPPSVSAAPGQKVTISCSGSSSNIGNNYVSWYQQLPGTAPKLLIYDNNKRPSGIPDRFSGSKSGTSATLGITGLQTGDEADYYCGTADSSLSGVVFGGGTKLTVL",14,0.18,-1.8
"anti-P-cadherin scFv 153 alanine-mutant L3.1-Ala (scFv, V domains shown, scFv on phage) VH: EVQLVQSGAEVKKPGASVKVSCKASGYTFTSYGISWVRQAPGQGLEWMGWISAYNGNTNYAQKLQGRVTMTTDTSTSTAYMELRSLRSDDTAVYYCATIDTANAFGIWGQGTMVTVSS VL: QSVLTQPPSVSAAPGQKVTISCSGSSSNIGNNYVSWYQQLPGTAPKLLIYDNNKRPSGIPDRFSGSKSGTSATLGITGLQTGDEADYYCATWDSSLSGVVFGGGTKLTVL",153,2.02,1.1
"anti-P-cadherin scFv 153 alanine-mutant L2.4-Ala (scFv, V domains shown, scFv on phage) VH: EVQLVQSGAEVKKPGASVKVSCKASGYTFTSYGISWVRQAPGQGLEWMGWISAYNGNTNYAQKLQGRVTMTTDTSTSTAYMELRSLRSDDTAVYYCATIDTANAFGIWGQGTMVTVSS VL: QSVLTQPPSVSAAPGQKVTISCSGSSSNIGNNYVSWYQQLPGTAPKLLIYDNNARPSGIPDRFSGSKSGTSATLGITGLQTGDEADYYCGTWDSSLSGVVFGGGTKLTVL",161,2.13,1.3
"anti-P-cadherin scFv 153 alanine-mutant L2.3-Ala (scFv, V domains shown, scFv on phage) VH: EVQLVQSGAEVKKPGASVKVSCKASGYTFTSYGISWVRQAPGQGLEWMGWISAYNGNTNYAQKLQGRVTMTTDTSTSTAYMELRSLRSDDTAVYYCATIDTANAFGIWGQGTMVTVSS VL: QSVLTQPPSVSAAPGQKVTISCSGSSSNIGNNYVSWYQQLPGTAPKLLIYDNAKRPSGIPDRFSGSKSGTSATLGITGLQTGDEADYYCGTWDSSLSGVVFGGGTKLTVL",74,0.98,-0.5
"anti-P-cadherin scFv 153 alanine-mutant L3.5-Ala (scFv, V domains shown, scFv on phage) VH: EVQLVQSGAEVKKPGASVKVSCKASGYTFTSYGISWVRQAPGQGLEWMGWISAYNGNTNYAQKLQGRVTMTTDTSTSTAYMELRSLRSDDTAVYYCATIDTANAFGIWGQGTMVTVSS VL: QSVLTQPPSVSAAPGQKVTISCSGSSSNIGNNYVSWYQQLPGTAPKLLIYDNNKRPSGIPDRFSGSKSGTSATLGITGLQTGDEADYYCGTWDASLSGVVFGGGTKLTVL",163,2.16,1.3
"anti-P-cadherin scFv 153 alanine-mutant L3.6-Ala (scFv, V domains shown, scFv on phage) VH: EVQLVQSGAEVKKPGASVKVSCKASGYTFTSYGISWVRQAPGQGLEWMGWISAYNGNTNYAQKLQGRVTMTTDTSTSTAYMELRSLRSDDTAVYYCATIDTANAFGIWGQGTMVTVSS VL: QSVLTQPPSVSAAPGQKVTISCSGSSSNIGNNYVSWYQQLPGTAPKLLIYDNNKRPSGIPDRFSGSKSGTSATLGITGLQTGDEADYYCGTWDSALSGVVFGGGTKLTVL",173,2.29,1.5
"anti-P-cadherin scFv 153 alanine-mutant L1.12-Ala (scFv, V domains shown, scFv on phage) VH: EVQLVQSGAEVKKPGASVKVSCKASGYTFTSYGISWVRQAPGQGLEWMGWISAYNGNTNYAQKLQGRVTMTTDTSTSTAYMELRSLRSDDTAVYYCATIDTANAFGIWGQGTMVTVSS VL: QSVLTQPPSVSAAPGQKVTISCSGSSSNIGNNYASWYQQLPGTAPKLLIYDNNKRPSGIPDRFSGSKSGTSATLGITGLQTGDEADYYCGTWDSSLSGVVFGGGTKLTVL",173,2.29,1.6
"anti-P-cadherin scFv 153 alanine-mutant L2.2-Ala (scFv, V domains shown, scFv on phage) VH: EVQLVQSGAEVKKPGASVKVSCKASGYTFTSYGISWVRQAPGQGLEWMGWISAYNGNTNYAQKLQGRVTMTTDTSTSTAYMELRSLRSDDTAVYYCATIDTANAFGIWGQGTMVTVSS VL: QSVLTQPPSVSAAPGQKVTISCSGSSSNIGNNYVSWYQQLPGTAPKLLIYDANKRPSGIPDRFSGSKSGTSATLGITGLQTGDEADYYCGTWDSSLSGVVFGGGTKLTVL",102,1.35,0
